Assay results taken from the supplement of paper PMC12042874.
± gives the uncertainty stated by the source.

assay: amyloid nucleation score (Sup35N fusion, yeast selection) (log enrichment); library NNK2; higher = more nucleation; inactive = no reads after selection
Outline: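 Growth for 7 days at 30°C on medium lacking adenine and uracil followed a 24-hour induction with 100 μM copper sulfate of psi-negative yeast expressing peptides of 20 random codons fused to Sup35N. Input and output plasmid inserts were sequenced with Illumina, and sequences with under 100 input reads were excluded. Nucleation score is the DiMSum log enrichment of output over input reads, centred on the mode score of non-aggregating sequences.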

| Substance | amyloid nucleation score |
| --- | --- |
| GGMVVPGKYRDRGY | -0.227 ± 0.26 |
| GGTSLRNTLGICLNYLQS | inactive |
| GGVIVQYLPFSNYLRKQGSL | -0.304 ± 0.39 |
| GGYSLWF | 0.292 ± 0.23 |
| GHIMKCGATRQYHCEDP | -0.614 ± 0.79 |
| GHMQYSYFLDLYSKLFCVFN | 4.52 ± 0.062 |
| GHNATNVGHIMFFITTWCCY | 8.955 ± 0.047 |
| GHSCLMVNNACSLDGHEESV | 1.16 ± 0.39 |
| GIGAQINHSVPLRGGKPRAL | -0.406 ± 1.1 |
| GIKYRSQCGCASDVCIKCRS | -0.054 ± 1.1 |
| GINRKDKMSKCTDLVVFCLG | -0.076 ± 0.33 |
| GINVSYLFIPHVGKICGNYN | 7.151 ± 0.047 |
| GIQVNYRWLGFGVGKRKARL | 5.547 ± 0.043 |
| GISCYLRVHTSANDESCSER | 0.426 ± 0.8 |
| GISCYMAPSGCRHNSVMSLW | 0.611 ± 0.5 |
| GIVVFINEMLTNTNPGKS | 6.954 ± 0.039 |
| GIYGSGIAFRRSGGWWEVCS | inactive |
| GIYNVLS | -0.108 ± 1.1 |
| GKFLCDV | 0.775 ± 0.31 |
| GLAEYRS | -0.488 ± 0.64 |
| GLFVRQGGLRVCWVLPVHAA | 0.645 ± 0.41 |
| GLLGAVDRTVR | 0.238 ± 0.56 |

| Substance | amyloid nucleation score |
| --- | --- |
| GLLKTQ | -0.087 ± 0.31 |
| GLLTGITILIVVDSCLGVCF | 3.99 ± 0.095 |
| GLLVLLLETCWKLVSFDLRK | 0.561 ± 0.39 |
| GLLVSGMINWYRVFIRNILL | -0.606 ± 0.38 |
| GLMAWR | 0.154 ± 0.37 |
| GLNVHVVRLGIQLFFKWNDI | 1.74 ± 0.18 |
| GLNVLCSLAIKAKLDGRWRH | 9.371 ± 0.072 |
| GLRELS | -0.874 ± 0.55 |
| GLSLLRGTNSGSAARLGANG | 0.452 ± 0.32 |
| GLTVHTVWLA | 0.189 ± 0.4 |
| GLVRPLSLMVETANAVHG | 1.39 ± 0.35 |
| GMDSFPFCMCRDCPYWGYDM | -0.745 ± 0.32 |
| GMLEGCRHHGIGWKGYACGQ | 2.94 ± 0.087 |
| GMSQAIVGVICSGIYLPEVR | 0.44 ± 0.37 |
| GMSYGESWIGTNLAGRVRAL | 1.29 ± 0.31 |
| GNGRHC | -0.021 ± 0.21 |
| GNIMSFSFMPDLGISFCPGC | 6.515 ± 0.049 |
| GNKMGCLFIGYCGFCTTVRP | 1.74 ± 0.15 |
| GNLVC | 0.821 ± 0.19 |
| GNRDSLNMFVCDRILRCPVQ | -0.273 ± 0.33 |
| GNRFPRPSPQGIIYKLLLFR | 2.92 ± 0.11 |
| GNTGCGVRACSGVCGKMDLV | 0.8 ± 0.27 |

| Substance | amyloid nucleation score |
| --- | --- |
| GNVGTRPQINTGSVCYMSCI | 4.6 ± 0.057 |
| GNVLTVIKAKDGS | -0.606 ± 0.49 |
| GNWMRYIFSKWARLWGWKTY | inactive |
| GNYISICESFF | -0.177 ± 1 |
| GPIWCRS | -0.467 ± 0.74 |
| GPLLVIWVRTLGRELG | 0.841 ± 0.26 |
| GPWAAVVRGFCPKGDKRSCG | -0.304 ± 0.41 |
| GRASMRACWVKMFYWFW | 0.981 ± 0.18 |
| GRDPGNDEIDKLALSWRLMG | 0.657 ± 0.32 |
| GRKISNCCQCWCHGL | 7.72 ± 0.042 |
| GRKLMWSRF | 0.004 ± 0.45 |
| GRNPVFWWQVLVATSRLNGQ | 1.05 ± 0.32 |
| GSASLCNSAERVYV | 0.681 ± 0.55 |
| GSDQNSCELSRRDIKKCMAL | 0.504 ± 0.33 |
| GSELMTSLSFVCGHVAAPAD | 0.669 ± 0.54 |
| GSEMIFYIAVVALCLCIPEG | 1.21 ± 0.22 |
| GSGNPGMSIFVKIY | -1.16 ± 0.62 |
| GSGSVAEIMRNVFLVCSW | -0.115 ± 0.34 |
| GSLAGAKL | -0.588 ± 0.76 |
| GSLGASVSNFGVAYSLCATR | -0.359 ± 0.65 |
| GSLMHEFAH | -0.698 ± 0.78 |
| GSMITCFVSDTLYKTVMVKL | 0.373 ± 0.54 |

| Substance | amyloid nucleation score |
| --- | --- |
| GSPWGSHGRHGLKHTKALKA | 1.1 ± 0.25 |
| GTFKDGMDSA | 3.75 ± 0.14 |
| GTLFIRSPYFCL | -0.478 ± 0.61 |
| GTMLMGVE | 0.449 ± 0.8 |
| GTRYLRVSFNCAVRV | 1.22 ± 0.69 |
| GTSWTVTID | 0.537 ± 0.18 |
| GTTVMGGILVLDGQALIGSM | 1.06 ± 0.28 |
| GVASMSRRARSHKMGGWMGR | 1.05 ± 0.41 |
| GVCPTVVCPHYIDVRML | 0.16 ± 0.55 |
| GVCVI | 0.775 ± 0.4 |
| GVCVKRFFKLVTAGECNSKG | -0.13 ± 0.4 |
| GVEVKSNVWTVSGWESQTPQ | 1.89 ± 0.42 |
| GVGGRVWTC | -0.998 ± 0.76 |
| GVGHFFLIQINKMCPHMRMA | 2.98 ± 0.13 |
| GVIRILWDECRTSDYFGCGT | 0.047 ± 0.26 |
| GVISYMTSRGRGLSNNMSNW | -0.15 ± 0.56 |
| GVIWTRAVANCIVLSGMS | -0.149 ± 0.55 |
| GVKRYDVHM | -0.244 ± 0.48 |
| GVLMIYYWVSMCLYALLIVF | inactive |
| GVPLLLRMTCSLCRIAFQE | 4.28 ± 0.069 |
| GVPYFLRW | -1.32 ± 0.48 |
